Reference: article PMC11336091

Biological target: T1, BmFoxO (Bombyx mori, UniProt H9BVM3 1-512)
T1 sequence: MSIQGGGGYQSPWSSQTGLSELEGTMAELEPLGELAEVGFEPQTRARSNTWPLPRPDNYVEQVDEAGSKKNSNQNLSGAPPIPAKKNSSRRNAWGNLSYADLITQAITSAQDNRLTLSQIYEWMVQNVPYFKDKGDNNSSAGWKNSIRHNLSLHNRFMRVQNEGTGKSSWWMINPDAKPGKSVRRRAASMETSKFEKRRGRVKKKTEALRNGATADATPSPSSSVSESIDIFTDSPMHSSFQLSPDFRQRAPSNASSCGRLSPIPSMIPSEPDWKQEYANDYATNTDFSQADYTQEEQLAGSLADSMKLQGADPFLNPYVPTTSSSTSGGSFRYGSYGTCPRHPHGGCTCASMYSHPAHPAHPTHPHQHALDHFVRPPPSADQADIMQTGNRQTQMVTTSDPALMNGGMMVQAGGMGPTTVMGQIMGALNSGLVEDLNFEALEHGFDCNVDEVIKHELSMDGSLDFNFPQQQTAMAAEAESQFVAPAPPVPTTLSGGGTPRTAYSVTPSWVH
Experiment: EMSA

B1: BmOSER1 promoter EMSA probe (dsDNA)
DNA 1: TGTATTAAAAACTTATATAAACTGTGATCT
DNA 2: AGATCACAGTTTATATAAGTTTTTAATACA
  binding result: binds
